Assay results published in US20110150901A1.

Target: complex of FGFR1c and β-Klotho (recombinant proteins) (UniProt P11362)
Experiment: AlphaScreen competition
Conditions: ligand

complex of FGFR1c and β-Klotho (recombinant proteins), sequence (P11362 other isoform, or with tags, fused parts or gaps, chain 1 of 2): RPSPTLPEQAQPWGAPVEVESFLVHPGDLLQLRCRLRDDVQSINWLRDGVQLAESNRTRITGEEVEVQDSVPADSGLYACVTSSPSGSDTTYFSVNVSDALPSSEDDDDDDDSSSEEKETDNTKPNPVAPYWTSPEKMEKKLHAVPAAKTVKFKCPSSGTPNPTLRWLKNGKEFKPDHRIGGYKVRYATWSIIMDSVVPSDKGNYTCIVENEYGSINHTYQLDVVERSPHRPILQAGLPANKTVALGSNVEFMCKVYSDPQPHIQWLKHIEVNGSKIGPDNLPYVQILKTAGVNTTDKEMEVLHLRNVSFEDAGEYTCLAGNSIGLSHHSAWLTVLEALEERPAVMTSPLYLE
complex of FGFR1c and β-Klotho (recombinant proteins), sequence (Q86Z14 53-996, chain 2 of 2, further chain): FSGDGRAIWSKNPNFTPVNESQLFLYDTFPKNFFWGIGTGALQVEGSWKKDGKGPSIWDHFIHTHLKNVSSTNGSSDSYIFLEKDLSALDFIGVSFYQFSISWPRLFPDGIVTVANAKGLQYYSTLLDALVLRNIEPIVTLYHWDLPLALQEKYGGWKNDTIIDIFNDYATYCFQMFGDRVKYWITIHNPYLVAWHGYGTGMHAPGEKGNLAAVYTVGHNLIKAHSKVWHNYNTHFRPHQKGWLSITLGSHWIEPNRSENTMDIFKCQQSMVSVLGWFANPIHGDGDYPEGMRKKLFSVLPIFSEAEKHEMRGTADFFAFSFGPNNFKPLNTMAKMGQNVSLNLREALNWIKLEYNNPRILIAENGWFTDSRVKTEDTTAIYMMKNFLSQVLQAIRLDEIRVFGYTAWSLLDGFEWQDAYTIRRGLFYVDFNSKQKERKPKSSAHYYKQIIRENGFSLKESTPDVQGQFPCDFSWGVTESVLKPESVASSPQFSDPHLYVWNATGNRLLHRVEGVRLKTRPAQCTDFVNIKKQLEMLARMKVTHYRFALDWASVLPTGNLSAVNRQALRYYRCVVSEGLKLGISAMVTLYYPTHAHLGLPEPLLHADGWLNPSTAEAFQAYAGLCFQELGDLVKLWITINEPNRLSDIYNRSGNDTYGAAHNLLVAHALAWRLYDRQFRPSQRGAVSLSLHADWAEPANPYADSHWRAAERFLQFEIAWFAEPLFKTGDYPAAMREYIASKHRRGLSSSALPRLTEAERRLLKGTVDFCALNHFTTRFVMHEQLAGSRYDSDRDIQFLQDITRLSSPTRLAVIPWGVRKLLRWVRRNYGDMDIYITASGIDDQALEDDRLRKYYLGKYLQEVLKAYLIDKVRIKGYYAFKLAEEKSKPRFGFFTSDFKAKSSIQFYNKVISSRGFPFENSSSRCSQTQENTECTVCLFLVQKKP

IC50: 2.6 nM
Substance: human FGF21 (from UniProt Q9NSA1 29-209)
